Among the data in US20120027739A1 are Kd, T½ and koff values, retold here.

This assay deals with … HLA-A*01 complex (soluble, biotinylated). In words: BIAcore SPR; pHLA immobilised via biotin, soluble TCR injected. A general note: Surface plasmon resonance follows binding to a sensor surface in real time, without labels.

B1: soluble disulfide-linked MAGE-A3 TCR: alpha chain with variable domain SEQ ID No: 8, reference TCR beta chain (TCR, V domains shown)
V domain 1: KQEVTQIPAALSVPEGENLVLNCSFTDSAIYNLQWFRQDPGKGLTSLLLVRPYQREQTSGRLNASLDKSSGRSTLYIAASQPGDSATYLCAVRPGGAGSYQLTFGKGTKLSVIP
V domain 2: KAGVTQTPRYLIKTRGQQVTLSCSPISGHRSVSWYQQTPGQGLQFLFEYFSETQRNKGNFPGRFSGRQFSNSRSEMNVSTLELGDSALYLCASSPNMADEQYFGPGTRLTVTE
Turning to B1, the Kd (as a rule, a measure of binding affinity in units of concentration) turned out to be 6.55 µM; the T½ was determined as 6.1 s; the koff – broadly, a measure of how fast the partners let go of each other – came to 0.114 s⁻¹.
